Laboratory results reported in patent US20180291082A1 (IMMATICS BIOTECHNOLOGIES, published 2018).

Target: T1, HLA-B*44:02 (human)
T1 construct: Peptide-receptive MHC monomer made by UV cleavage of a UV-sensitive peptide
Experiment: UV-ligand exchange, anti-b2m ELISA; exchange yield grade (+ >10%, ++ >20%, +++ >50, ++++ >75%)
Excerpt: Candidate peptides for T cell based therapies according to the present invention were further tested for their MHC binding capacity (affinity). The individual peptide-MHC complexes were produced by UV-ligand exchange, where a UV-sensitive peptide is cleaved upon UV-irradiation, and exchanged with the peptide of interest as analyzed. Only peptide candidates that can effectively bind and stabilize the peptide-receptive MHC molecules prevent dissociation of the MHC complexes. To determine the yield of the exchange reaction, an ELISA was performed based on the detection of the light chain (β2m) of stabilized MHC complexes. The assay was performed as generally described in Rodenko et al. (Rodenko et al., 2006).
96 well MAXISorp plates (NUNC) were coated over night with 2 ug/ml streptavidin in PBS at room temperature, washed 4× and blocked for 1 h at 37° C. in 2% BSA containing blocking buffer. Refolded HLA-A*02:01/MLA-001 monomers served as standards, covering the range of 15-500 ng/ml. Peptide-MHC monomers of the UV-exchange reaction were diluted 100-fold in blocking buffer. Samples were incubated for 1 h at 37° C., washed four times, incubated with 2 ug/ml HRP conjugated anti-β2m for 1 h at 37° C., washed again and detected with TMB solution that is stopped with […]. Absorption was measured at 450 nm. Candidate peptides that show a high exchange yield (preferably higher than 50%, most preferred higher than 75%) are generally preferred for a generation and production of antibodies or fragments thereof, and/or T cell receptors or fragments thereof, as they show sufficient avidity to the MHC molecules and prevent dissociation of the MHC complexes.

Row | Binder | peptide exchange yield
1 | AEQPDGLIL | 20 to 50%
2 | AEETCAPSV | 20 to 50%
3 | EEAKQVLFL | 20 to 50%
4 | FELPTGAGL | 20 to 50%
5 | GEELGFASL | 20 to 50%
6 | GEHTSKATL | 20 to 50%
7 | AEERAEAKKKF | 20 to 50%
8 | AEAVLKTLQEL | 50 to 75%
9 | AENAEYLRV | 20 to 50%
10 | AEHDAVRNAL | 50 to 75%
11 | AEQTGTWKL | 20 to 50%
12 | GEATLQRIY | 10 to 20%
13 | EELLHGQLF | 20 to 50%

More lines, now with the values ahead:

Row | peptide exchange yield | Binder
14 | > 75% | SEVPVARVW
15 | 50 to 75% | KEFNLQNMGL
16 | 50 to 75% | NEINEKIAPSF
17 | 50 to 75% | NEISTFHNL
18 | 50 to 75% | TEATMTFKY
19 | 20 to 50% | KENFAGEATL
20 | 20 to 50% | KESQLPTVM
21 | 10 to 20% | TTMDQKSLW
22 | 10 to 20% | LQEEKVPAIY
23 | 50 to 75% | KEITGFLLI
24 | 20 to 50% | YEVDTVLRY
25 | 20 to 50% | SEPINIIDAL
26 | 20 to 50% | SENIVIQVY
27 | > 75% | QEVLLQTFL
28 | 50 to 75% | SEAFPSRAL
29 | 20 to 50% | TEKEMIQKL
30 | 50 to 75% | SESAVFHGF
